No end group written: not given here. TMR = tetramethyl rhodamine dye

Holding throughout (experiment): fluorescence polarisation; 37 °C, after the 25 °C reading ramped over 7 min to 37 °C and 2 min incubation; unlabeled Rb^P against 1.5 nM TMR-E2F1^TD or 7.5 nM TMR-E7^LxCxE; 25 mM Tris pH 8.0, 200 mM NaCl, 1 mM DTT, 0.1% Tween-20; apparent Kd
Holding throughout (settings): both partners purified

Experiment [1] addresses T1, Rb^P S443L (human, UniProt P06400 380-788, S443L).
T1 construct: also called variant 2
T1 sequence (looked up): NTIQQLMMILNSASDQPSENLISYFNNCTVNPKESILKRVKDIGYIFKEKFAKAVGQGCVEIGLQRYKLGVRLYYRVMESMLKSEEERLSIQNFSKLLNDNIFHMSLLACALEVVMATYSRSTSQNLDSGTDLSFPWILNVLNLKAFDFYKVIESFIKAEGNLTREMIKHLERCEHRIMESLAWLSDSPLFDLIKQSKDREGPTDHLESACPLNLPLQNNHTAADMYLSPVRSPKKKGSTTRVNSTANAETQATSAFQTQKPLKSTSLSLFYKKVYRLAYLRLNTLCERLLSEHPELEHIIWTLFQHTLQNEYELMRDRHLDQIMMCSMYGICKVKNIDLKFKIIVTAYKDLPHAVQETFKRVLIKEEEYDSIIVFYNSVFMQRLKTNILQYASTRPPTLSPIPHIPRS

Experiment [2] deals with T2, Rb^P P595L (human, UniProt P06400 380-788, P595L).
T2 construct: also called variant 35
T2 sequence (looked up): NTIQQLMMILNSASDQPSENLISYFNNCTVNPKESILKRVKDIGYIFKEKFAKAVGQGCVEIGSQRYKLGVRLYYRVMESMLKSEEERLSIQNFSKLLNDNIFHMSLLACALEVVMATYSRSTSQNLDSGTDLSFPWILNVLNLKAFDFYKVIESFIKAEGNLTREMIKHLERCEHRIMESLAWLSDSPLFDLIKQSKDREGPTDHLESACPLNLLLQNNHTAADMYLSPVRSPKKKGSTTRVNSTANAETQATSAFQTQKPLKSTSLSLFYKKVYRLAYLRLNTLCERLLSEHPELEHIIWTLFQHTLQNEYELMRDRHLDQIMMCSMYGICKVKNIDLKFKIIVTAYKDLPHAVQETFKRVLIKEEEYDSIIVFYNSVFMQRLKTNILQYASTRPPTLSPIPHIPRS

Experiment [3] concerns the target T3, Rb^P S648T (human, UniProt P06400 380-788, S648T).
T3 construct: also called variant 46
T3 sequence (looked up): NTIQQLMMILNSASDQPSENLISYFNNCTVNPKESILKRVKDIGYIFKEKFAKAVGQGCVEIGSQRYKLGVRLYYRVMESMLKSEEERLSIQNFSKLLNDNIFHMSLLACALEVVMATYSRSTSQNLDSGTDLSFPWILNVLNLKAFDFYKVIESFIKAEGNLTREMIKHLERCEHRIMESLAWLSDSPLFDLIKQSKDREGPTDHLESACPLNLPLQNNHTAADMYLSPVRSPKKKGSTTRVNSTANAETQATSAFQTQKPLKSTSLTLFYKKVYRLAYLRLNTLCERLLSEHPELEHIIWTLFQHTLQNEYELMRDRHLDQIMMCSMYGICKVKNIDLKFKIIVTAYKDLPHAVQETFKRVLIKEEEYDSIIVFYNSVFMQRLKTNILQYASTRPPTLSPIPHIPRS

For experiment [4], the target named is T4, Rb^P R741H (human, UniProt P06400 380-788, R741H).
T4 construct: also called variant 69
T4 sequence (looked up): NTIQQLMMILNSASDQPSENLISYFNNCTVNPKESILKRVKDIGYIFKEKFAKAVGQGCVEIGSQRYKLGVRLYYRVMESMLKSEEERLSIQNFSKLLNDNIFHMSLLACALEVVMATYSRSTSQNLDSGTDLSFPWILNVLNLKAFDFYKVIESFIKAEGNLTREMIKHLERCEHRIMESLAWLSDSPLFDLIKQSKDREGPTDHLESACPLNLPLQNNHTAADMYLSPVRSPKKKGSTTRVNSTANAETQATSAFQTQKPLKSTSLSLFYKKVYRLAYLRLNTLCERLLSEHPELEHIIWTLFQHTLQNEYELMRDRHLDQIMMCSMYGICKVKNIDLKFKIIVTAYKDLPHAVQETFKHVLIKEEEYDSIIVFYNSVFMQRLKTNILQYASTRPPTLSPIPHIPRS

In experiment [5] the target is T5, Rb^P V754G (human, UniProt P06400 380-788, V754G).
T5 construct: also called variant 73
T5 sequence (looked up): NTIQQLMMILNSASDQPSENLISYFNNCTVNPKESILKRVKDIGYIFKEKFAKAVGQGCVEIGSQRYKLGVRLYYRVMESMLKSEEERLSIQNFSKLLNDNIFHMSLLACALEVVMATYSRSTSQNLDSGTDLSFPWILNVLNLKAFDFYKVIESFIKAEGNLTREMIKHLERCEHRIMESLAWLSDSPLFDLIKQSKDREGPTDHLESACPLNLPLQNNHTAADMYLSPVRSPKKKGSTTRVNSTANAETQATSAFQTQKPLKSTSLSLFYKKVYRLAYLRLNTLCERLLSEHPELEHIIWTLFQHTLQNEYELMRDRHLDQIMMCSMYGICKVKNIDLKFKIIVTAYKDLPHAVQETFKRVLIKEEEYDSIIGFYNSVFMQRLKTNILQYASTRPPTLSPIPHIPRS

B1: TMR-E2F1^TD, peptide of the E2F1 transactivation domain (peptide)
peptide: {TMR}-GEGIRDLFDCDFGDLTPLD
notes: also called E2F^TD; source: synthetic peptide, bought: GenScript
Consider B1, for which the Kd amounted to 55 nM in experiment [1]; 83 nM in experiment [2]; 58 nM in experiment [3]; 41 nM in experiment [4]; 34 nM in experiment [5].

B2: TMR-E7^LxCxE, LxCxE peptide of the E7 oncoprotein from HPV (peptide)
peptide: DLYCYEQLN
modifications: also: TMR label, position not given here
notes: source: synthetic peptide, bought: GenScript
On to B2, for which the Kd in experiment [1] came to 21 nM; in experiment [2], 32 nM; in experiment [3], 14 nM; in experiment [4], 21 nM; in experiment [5], 15 nM.

(Values after publication PMC11931385, “Structural and functional analysis of cancer-associated missense variants in the retinoblastoma protein pocket domain” (The Journal of Biological Chemistry, 2025).)
